Measurements from the supplement of paper PMC12764529.
± gives the half width of the 95% confidence interval.

Assays:
[1] = folding stability dG unfold from chymotrypsin proteolysis; higher = more stable
How it was run: (§1)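 Unfolding free energy was derived, per protease or combined, by relating Bayesian-fitted K50 values from sequencing counts to a sequence-predicted unfolded-state K50 and a shared folded-state K50. The underlying digests exposed cysteine-free mini-proteins under 80 residues, in a PA-tagged cDNA display construct, to trypsin and chymotrypsin at 11 threefold-diluted concentrations and to a no-protease condition. A filter kept only designs with AlphaFold2 dimer inter-PAE above 15.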

[2] = folding stability dG unfold (combined trypsin and chymotrypsin); higher = more stable
How it was run: as §1

[3] = folding stability dG unfold from trypsin proteolysis; higher = more stable
How it was run: as §1

Sequence | folding stability dG unfold [1] [kcal/mol] | folding stability dG unfold [2] [kcal/mol] | folding stability dG unfold [3] [kcal/mol]
SAGGSMTLTFTDPSTGTTTTVTKLPNGKYVVTTTTTTSTNPEVSPTGETVGPATTTTTTVLPPAELSAGGSA [r2_195_JUSTAS] | 1.79 ± 0.024 | 1.86 ± 0.065 | 2 ± 0.12
SAGGSMTLTGESEEEAKALVEALKEELKKKYPEKPNLEIPVKVIIKDPKTGKETEKVFKVKIPIPKSAGGSA [r2_393_JUSTAS] | 1.11 ± 0.09 | 1.14 ± 0.062 | 1.04 ± 0.028
SAGGSMTLTIEVDGKTVEITEVREKEDGEKVVRIRVTTPDGEEKEIEMTLDELAEILGLSKEELEPSAGGSA [r2_262_TrROS_Hall] | 2.67 ± 0.085 | 3.27 ± 0.18 | 3.75 ± 0.19
SAGGSMTTTTEDKGDGRIVTTTIPEEGTVVTTTIFYEPGGPKVETKTTTTPVPPLPSTVVTSPNLASAGGSA [r2_375_JUSTAS] | 1.15 ± 0.13 | 0.937 ± 0.34 | 0.572 ± 0.093
SAGGSMVLLSEETIGDIKIKTYKDPNGGVITVIEKPGERTIEFIYPDGILTIEFPPDGTKKYSFDPIGSAGG [r13_246_JUSTAS] | 2.32 ± 0.071 | 2.29 ± 0.1 | 2.01 ± 0.049
SAGGSMVLTLEEESEEGVLRVTELHFYPGEVTVTTRTFEIAPDGSVRSATESTTVIPVPPSALAEASAGGSA [r2_474_JUSTAS] | 2.33 ± 0.038 | 1.96 ± 0.1 | 1.37 ± 0.051
SAGGSMVLVRVERTPDGTLRVTALFFFDGRLLRVERTFRLAPDGRIVDADVSVEELPVPPSEVPVLSAGGSA [r2_474_TrMRF] | 4.45 ± 0.071 | 4.11 ± 0.099 | 3.39 ± 0.16
SAGGSMVTLTTTETSVEGERTVEVSTLGSKTVTTTFEPESDSSTVTTSPVPPVAGPELLALNLLLLSAGGSA [r2_482_JUSTAS] | -0.102 ± 0.18 | 0.189 ± 0.082 | 0.291 ± 0.079
SAGGSMVVVPVEVTVPPEELEQYLEDLRAAYEKPGVKVEILPVEREPIRDPAGRVEEVRAKATIKIVPSAGG [r13_707_JUSTAS] | 0.522 ± 0.042 | 0.207 ± 0.08 | -0.511 ± 0.21
SAGGSMYLIRITVRNKDGEEVLTIERRVRLEDGKSLEEVAEELRRALESLPNLEVVDVEVVPLEELSAGGSA [r2_192_TrROS_Hall] | 3.797 ± 0.019 | 3.99 ± 0.058 | 4.3 ± 0.072
SAGGSNVVEVEVEELPDGTVVLRVRVLRLLPNGELGGVVERPFVFPRELFENIPLEEIVRRAVEEGSAGGSA [r2_421_TrMRF] | 3.758 ± 0.032 | 3.63 ± 0.072 | 3.39 ± 0.081
SAGGSPDPNQKPVTVRVEIMIMRPDPNGKWEMRPIEFEMTIGDVEEFLEELEKEPGYMIMVDIEIYSAGGSA [r2_270_TrROS] | 3.97 ± 0.25 | 3.65 ± 0.28 | 2.33 ± 0.13
SAGGSPEIPKDYEVIEIDAETLPDGSVLIPIIVRDPIIPYYLKMYYRSIPTRWEPISFELIHPDELSAGGSA [r2_371_TrMRF] | 1.61 ± 0.085 | 1.45 ± 0.057 | 1.25 ± 0.018
SAGGSPEQARRWAKYIAETRAGENGWEVEDVEVEQHPGGYVEASIDVQFPDGKKREITITIPPGDPFSAGGS [r8_175_TrROS] | -0.361 ± 0.81 | -0.447 ± 0.55 | -0.149 ± 0.54
SAGGSPFKKETFEFENVKVEVYRLPGPYALALLEVEVSGEPVYYVAVFKLGPDNKLEVVSFGPVDLSAGGSA [r2_171_TrMRF] | 2.85 ± 0.031 | 2.78 ± 0.053 | 2.63 ± 0.054
SAGGSPGIKIEIWFMIMFPVKPDPDNGKPRWYMIMVSPKMWYDPEPGGMQIEIDINIMPLGDPEAFSAGGSA [r2_489_TrROS] | 3.6 ± 0.038 | 3.41 ± 0.21 | 3.2 ± 0.16
SAGGSPIKPITFEFPNIKVTVYRMPNKYIMVHIEFRENGEPYYLMITFKLDPDNKLKATSIGPMPPSAGGSA [r2_171_TrROS] | 4.537 ± 0.037 | 4.01 ± 0.093 | 2.69 ± 0.1
SAGGSPMTITMWFPVDSVEQAKDLINPNFPDYDVKVDNIKPENGWVRVKYTWPNGKPQEREIPIKKSAGGSA [r2_201_TrROS] | 0.324 ± 0.38 | 0.147 ± 0.39 | -0.226 ± 0.33
SAGGSPNIQVNVERDPKDGYIKFSITVPPGAPNMKIKIAIFENDKIVEKEEITMPPGKTTEYTFKIKSAGGS [r16_412_TrROS] | 4.13 ± 0.065 | 3.6 ± 0.38 | 3.29 ± 0.16
SAGGSPPDNFKMEPIPLRFPNGWKITVMVMRNPDDGRPYVSVEIEPPNDGKEVKFMMPADDLKDFISAGGSA [r2_366_TrROS] | 1.64 ± 0.23 | 1.66 ± 0.19 | 1.5 ± 0.054
SAGGSPPPVEVTPITHINGGEPVPTRVETYPDGTVTVHITLPDGSSGTLPAEELAELLAAPGSLGDFSAGGS [r16_105_JUSTAS] | -0.455 ± 0.033 | 0.805 ± 0.045 | 1.53 ± 0.071

Sequence | folding stability dG unfold [1] [kcal/mol] | folding stability dG unfold [2] [kcal/mol] | folding stability dG unfold [3] [kcal/mol]
SAGGSPRLELTVTIPGLGLPVTVRTESVDPVRGYVTATLDFPVPGYRATLVFDPVTGRVYARVEPASAGGSA [r2_147_TrMRF] | 3.13 ± 0.062 | 2.85 ± 0.12 | 2.34 ± 0.04
SAGGSPSITVSESSDPATGTRTLTITVPSSAPSATLNIVVSGSGPPVSSKTVTVPPGTTVTITYTTTSAGGS [r16_412_JUSTAS] | 2.84 ± 0.049 | 2.61 ± 0.056 | 2.2 ± 0.06
SAGGSPSTARTVELEFNPNEVTLEKIKELLEELGFKGITSITVESTPDSLTITLTDPNGAPSVVRVISAGGS [r8_86_JUSTAS] | 2.66 ± 0.075 | 2.43 ± 0.047 | 2.05 ± 0.049
SAGGSPTVTFDPETGAVTVTVNGQTQTAYIPPGDKVTLTVTFQSGGSGVPFTLELEVTVTPPKPLKSAGGSA [r2_116_TrMRF] | 2.48 ± 0.061 | 2.17 ± 0.12 | 1.45 ± 0.074
SAGGSQKLPPGETIPIRIPGFQIEISPDKTTIHVMWPDPDEAKDFLKNLPFPIKIDKVEVMPPEDFSAGGSA [r2_418_TrROS] | 1.01 ± 0.035 | 0.85 ± 0.11 | 0.515 ± 0.066
SAGGSRIEEVAREILEKLPLKPGEPVLVEVEVDFPDGLRIRLKVEAYVDPETGEVHLKVEILEIEPVSAGGS [r16_634_TrMRF] | 2.91 ± 0.064 | 3.06 ± 0.069 | 3.24 ± 0.039
SAGGSRRLEFMFYNPEAGFLIKIEVTYDPDDPGYYKIRVEVYPPDGEPIFPVEIYVPPGDDIKIKFPSAGGS [r16_654_TrROS] | 4.42 ± 0.13 | 4.31 ± 0.29 | 3.54 ± 0.35
SAGGSRVEVEVEVEGDTLRVRLRVYSEGGPPLLEAEAELPLGPVPPLPPVEVRVDPLEEEYPAKYFSAGGSA [r2_332_TrMRF] | 2.28 ± 0.17 | 2.5 ± 0.31 | 2.82 ± 0.14
SAGGSSELEEAIEKARAEPGVLVERTVKLPDGRELKVEVDPKTGIVTLTETLPDGSTTTKEETYEPSAGGSA [r2_263_JUSTAS] | 1.26 ± 0.085 | 1.11 ± 0.13 | 0.512 ± 0.088
SAGGSSMPLVKKEVDATRPDGSPLSFEEYLSSLKPNIRSEPIPNGKTVVTAPDPATGSTYTITIEESAGGSA [r2_234_JUSTAS] | -0.37 ± 0.14 | -0.428 ± 0.079 | -1.31 ± 0.19
SAGGSSMTTKTINLSLPNGVEELTITITTPPDGTYNATFYFPKTGKKTTHNFTSEEEIEKFIEELIKESAGG [r13_857_JUSTAS] | 4.291 ± 0.036 | 4.01 ± 0.089 | 2.97 ± 0.086
SAGGSSMTVTKLPTNKTVTTRPLPSSSSVTTTTTFDPNSPVATVTTTDTSSDTSTTTTVPLGPGAFSAGGSA [r2_114_JUSTAS] | 0.892 ± 0.06 | 0.824 ± 0.11 | 0.783 ± 0.035
SAGGSSPAARRLAKRIAKLMMKKHPPGEKRTVEIELPDGVEIKATFNNNGNIDDIEIRSPDGEPIISAGGSA [r2_84_TrROS] | 0.482 ± 0.4 | 0.644 ± 0.36 | 0.771 ± 0.17
SAGGSSPPTVEVSFDPASGTLTITTPDGTTTYSVKSVTVTRLPPELTLITITLEDGTVLTFELVVASAGGSA [r2_268_JUSTAS] | 4.65 ± 0.063 | 4.52 ± 0.13 | 3.36 ± 0.15
SAGGSSSASNISTNPTPLPEESVTVTASSDGVITVTITDPNGVPTTYTYNIPSGSIEEAIAEAISSSAGGSA [r2_298_JUSTAS] | 2.06 ± 0.09 | 1.97 ± 0.094 | 1.86 ± 0.059
SAGGSSSLLEGLPGVVEVTVTTSLSVRPLSPEAARANPGQADRTVPLPRTTVTVTVEFPVSPAGILSAGGSA [r2_404_JUSTAS] | 1.15 ± 0.067 | 0.94 ± 0.15 | 0.509 ± 0.1
SAGGSSSSSYTLNYPDKRVNVSVSHPPSGPLNVTITVYDPNGNKTKTITSPVGSLEKAKSLLEKLLSAGGSA [r2_82_JUSTAS] | 1.28 ± 0.062 | 1.45 ± 0.11 | 1.63 ± 0.04
SAGGSSVRISFPNGYTVEITVTEDSATITLRSPTSTETVEFPSSVQVTITGPLNQPVTFDIPSSSESAGGSA [r2_57_TrMRF] | 2.811 ± 0.024 | 2.8 ± 0.057 | 2.77 ± 0.077
SAGGSTTITLPDGRTATVEPDPNGVERYTVPGHPGVYIEKDPSTNKLTVTTVDPSSGSPVTSVIEESAGGSA [r2_477_JUSTAS] | -0.572 ± 0.44 | 0.0736 ± 0.15 | 0.243 ± 0.043
SAGGSVEEIAEELAKQPSYTKVTVTLFVDPDGTARVVITDVENGKTYTVPLPPAATPVGTLTLPVESAGGSA [r2_74_JUSTAS] | 1.68 ± 0.046 | 1.63 ± 0.083 | 1.56 ± 0.026
SAGGSVEELRELARKLAEELGLEVVEVEVEEREDGKVTVTVTIKGPPKVEIKLEVTENEVKITEIKPSAGGS [r8_432_TrROS_Hall] | 3.35 ± 0.26 | 3.42 ± 0.23 | 3.36 ± 0.25
